Results as given in patent US20250243284A1.

What was measured:
[1] = biological target: FGFR2 isoform FGFR2-IIIb (FGFR2b), on the surface of cancer cell lines (UniProt P21802); assay: flow cytometry on SNU16-Luc cells (gastric cancer, positive control), detected with APC anti-human IgG1
[2] = biological target: FGFR2 isoform FGFR2-IIIb (FGFR2b), on the surface of cancer cell lines (UniProt P21802); assay: flow cytometry on HCC1187 cells (TNBC), detected with APC anti-human IgG1
[3] = biological target: FGFR2 isoform FGFR2-IIIb (FGFR2b), on the surface of cancer cell lines (UniProt P21802); assay: flow cytometry on KATOIII cells (gastric cancer, positive control), detected with APC anti-human IgG1
[4] = biological target: FGFR2 isoform FGFR2-IIIb (FGFR2b), on the surface of cancer cell lines (UniProt P21802); assay: flow cytometry on EPLC-272H cells (squamous lung cancer), detected with APC anti-human IgG1
[5] = biological target: FGFR2 isoform FGFR2-IIIb (FGFR2b), on the surface of cancer cell lines (UniProt P21802); assay: flow cytometry on BT20 cells (TNBC), detected with APC anti-human IgG1
[6] = biological target: FGFR2 isoform FGFR2-IIIb (FGFR2b), on the surface of cancer cell lines (UniProt P21802); assay: flow cytometry on SNU16 cells (gastric cancer, positive control), detected with APC anti-human IgG1
[7] = biological target: FGFR2 isoform FGFR2-IIIb (FGFR2b), on the surface of cancer cell lines (UniProt P21802); assay: flow cytometry on SW900 cells (squamous lung cancer), detected with APC anti-human IgG1
[8] = biological target: FGFR2 isoform FGFR2-IIIb (FGFR2b), on the surface of cancer cell lines (UniProt P21802); assay: flow cytometry on LUDLU1 cells (squamous lung cancer), detected with APC anti-human IgG1
[9] = biological target: FGFR2 isoform FGFR2-IIIb (FGFR2b), on the surface of cancer cell lines (UniProt P21802); assay: flow cytometry on SW1573 cells (squamous lung cancer), detected with APC anti-human IgG1
[10] = biological target: FGFR2 isoform FGFR2-IIIb (FGFR2b), on the surface of cancer cell lines (UniProt P21802); assay: flow cytometry on HCC38 cells (TNBC), detected with APC anti-human IgG1
[11] = biological target: FGFR2 isoform FGFR2-IIIb (FGFR2b), on the surface of cancer cell lines (UniProt P21802); assay: flow cytometry on NCIH2170 cells (squamous lung cancer), detected with APC anti-human IgG1
[12] = biological target: FGFR2 isoform FGFR2-IIIb (FGFR2b), on the surface of cancer cell lines (UniProt P21802); assay: flow cytometry on HCC1937 cells (TNBC), detected with APC anti-human IgG1
[13] = biological target: FGFR2 isoform FGFR2-IIIb (FGFR2b), on the surface of cancer cell lines (UniProt P21802); assay: flow cytometry on HCC1806 cells (TNBC), detected with APC anti-human IgG1
[14] = biological target: FGFR2 isoform FGFR2-IIIb (FGFR2b), on the surface of cancer cell lines (UniProt P21802); assay: flow cytometry on LC1F cells (squamous lung cancer), detected with APC anti-human IgG1
[15] = biological target: FGFR2 isoform FGFR2-IIIb (FGFR2b), on the surface of cancer cell lines (UniProt P21802); assay: flow cytometry on HCC1569 cells (TNBC), detected with APC anti-human IgG1
[16] = biological target: FGFR2 isoform FGFR2-IIIb (FGFR2b), on the surface of cancer cell lines (UniProt P21802); assay: flow cytometry on HARA cells (squamous lung cancer), detected with APC anti-human IgG1
[17] = biological target: FGFR2 isoform FGFR2-IIIb (FGFR2b), on the surface of cancer cell lines (UniProt P21802); assay: flow cytometry on KNS-62 cells (squamous lung cancer), detected with APC anti-human IgG1

Mean Fluorescence Intensity by FACS [1]: 7960 MFI | Mean Fluorescence Intensity by FACS [2]: -6 MFI | Mean Fluorescence Intensity by FACS [3]: 20400 MFI | Mean Fluorescence Intensity by FACS [4]: 759 MFI | Mean Fluorescence Intensity by FACS [5]: 252 MFI | Mean Fluorescence Intensity by FACS [6]: 7800 MFI | Mean Fluorescence Intensity by FACS [7]: 10.3 MFI | Mean Fluorescence Intensity by FACS [8]: 638 MFI | Mean Fluorescence Intensity by FACS [9]: -1.2 MFI | Mean Fluorescence Intensity by FACS [10]: 346 MFI | Mean Fluorescence Intensity by FACS [11]: 153 MFI | Mean Fluorescence Intensity by FACS [12]: 690 MFI | Mean Fluorescence Intensity by FACS [13]: 401 MFI | Mean Fluorescence Intensity by FACS [14]: 123 MFI | Mean Fluorescence Intensity by FACS [15]: 1360 MFI | Mean Fluorescence Intensity by FACS [16]: 401 MFI | Mean Fluorescence Intensity by FACS [17]: 572 MFI
B1: bemarituzumab (antibody, human IgG1, kappa, V domains shown)
VH: QVQLVQSGAEVKKPGSSVKVSCKASGYIFTTYNVHWVRQAPGQGLEWIGSIYPDNGDTSYNQNFKGRATITADKSTSTAYMELSSLRSEDTAVYYCARGDFAYWGQGTLVTVSS
VL: DIQMTQSPSSLSASVGDRVTITCKASQGVSNDVAWYQQKPGKAPKLLIYSASYRYTGVPSRFSGSGSGTDFTFTISSLQPEDIATYYCQQHSTTPYTFGQGTKLEIKR
modifications: afucosylated: glycan at Asn297 (EU numbering) lacks core fucose
